Source: patent US20130108658A1 (published 2013)

Key:
[1] = target: AAV-amyloid-453-587 (AAV2; human) (UniProt P03135)
[2] = target: T1, purified αvβ3 integrin (CHEMICON) (UniProt P06756 31-1048; P05106 27-788); assay: A20-capture ELISA, purified αvβ3 integrin 100 ng/well, normalised to A20-biot
T1 construct: also called soluble αvβ3; soluble receptor αvβ3
T1 sequence (P06756 31-1048, chain 1 of 2): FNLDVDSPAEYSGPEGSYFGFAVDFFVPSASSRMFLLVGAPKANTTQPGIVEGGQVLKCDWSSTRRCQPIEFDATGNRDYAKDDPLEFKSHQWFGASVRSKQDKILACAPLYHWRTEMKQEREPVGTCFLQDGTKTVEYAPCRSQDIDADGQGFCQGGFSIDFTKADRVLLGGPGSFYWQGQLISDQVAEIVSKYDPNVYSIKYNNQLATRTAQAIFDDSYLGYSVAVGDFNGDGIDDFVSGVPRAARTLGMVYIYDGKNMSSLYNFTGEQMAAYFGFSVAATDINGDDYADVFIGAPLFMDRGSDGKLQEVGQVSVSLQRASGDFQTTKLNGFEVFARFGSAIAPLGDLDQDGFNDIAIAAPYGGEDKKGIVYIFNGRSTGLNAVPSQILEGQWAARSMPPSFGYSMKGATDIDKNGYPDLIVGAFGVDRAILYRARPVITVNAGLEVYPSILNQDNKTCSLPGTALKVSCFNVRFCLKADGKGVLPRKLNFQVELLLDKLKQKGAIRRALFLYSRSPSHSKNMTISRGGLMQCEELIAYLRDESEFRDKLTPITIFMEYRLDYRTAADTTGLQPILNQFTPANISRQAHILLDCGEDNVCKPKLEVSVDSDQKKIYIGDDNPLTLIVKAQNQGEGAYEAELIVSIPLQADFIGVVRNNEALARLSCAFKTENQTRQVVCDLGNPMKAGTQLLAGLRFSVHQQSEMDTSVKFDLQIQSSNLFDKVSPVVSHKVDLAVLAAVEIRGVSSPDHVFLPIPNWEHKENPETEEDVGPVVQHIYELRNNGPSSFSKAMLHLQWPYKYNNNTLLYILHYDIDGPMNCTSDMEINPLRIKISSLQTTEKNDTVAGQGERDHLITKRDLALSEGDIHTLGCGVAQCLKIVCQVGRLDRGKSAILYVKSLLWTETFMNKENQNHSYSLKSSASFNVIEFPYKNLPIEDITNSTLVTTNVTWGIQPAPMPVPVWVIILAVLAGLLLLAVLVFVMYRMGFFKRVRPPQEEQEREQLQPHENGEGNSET
T1 sequence (P05106 27-788, chain 2 of 2): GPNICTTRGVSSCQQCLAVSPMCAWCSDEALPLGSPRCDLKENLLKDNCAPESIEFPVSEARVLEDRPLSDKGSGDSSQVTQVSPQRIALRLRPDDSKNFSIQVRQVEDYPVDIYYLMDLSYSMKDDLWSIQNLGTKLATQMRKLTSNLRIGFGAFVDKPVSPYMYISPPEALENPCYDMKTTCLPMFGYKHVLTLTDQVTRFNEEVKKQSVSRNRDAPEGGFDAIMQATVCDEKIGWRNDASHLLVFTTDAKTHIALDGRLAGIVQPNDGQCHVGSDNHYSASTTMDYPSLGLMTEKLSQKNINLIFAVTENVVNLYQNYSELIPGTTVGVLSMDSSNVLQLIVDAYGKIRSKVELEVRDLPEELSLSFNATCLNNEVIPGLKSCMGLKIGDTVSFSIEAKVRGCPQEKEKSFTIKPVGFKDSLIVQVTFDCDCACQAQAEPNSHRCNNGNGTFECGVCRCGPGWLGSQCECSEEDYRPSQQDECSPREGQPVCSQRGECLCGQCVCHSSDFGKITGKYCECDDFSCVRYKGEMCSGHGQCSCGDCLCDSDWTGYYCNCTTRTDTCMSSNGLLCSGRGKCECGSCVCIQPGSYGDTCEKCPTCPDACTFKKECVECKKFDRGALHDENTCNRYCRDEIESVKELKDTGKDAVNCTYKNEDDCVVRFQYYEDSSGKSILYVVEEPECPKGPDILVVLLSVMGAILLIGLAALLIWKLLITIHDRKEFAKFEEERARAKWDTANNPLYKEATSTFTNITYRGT

Molecule	fold higher affinity against the I-587-insertion mutant [1]	fold increase of binding activity against RGD4C 453 [2]
anti-β-amyloid mAb 6E10 (CHEMICON) (antibody)	2 fold	–
AAV2 RGD4C 453 A2 (other, Capsid particle of VP-1, VP-2 and VP-3; substitution positions count on wild-type AAV2 VP-1) MAADGYLPDWLEDTLSEGIRQWWKLKPGPPPPKPAERHKDDSRGLVLPGYKYLGPFNGLDKGEPVNEADAAALEHDKAYDRQLDSGDNPYLKYNHADAEFQERLKEDTSFGGNLGRAVFQAKKRVLEPLGLVEEPVKTAPGKKRPVEHSPVEPDSSSGTGKAGQQPARKRLNFGQTGDADSVPDPQPLGQPPAAPSGLGTNTMATGSGAPMADNNEGADGVGNSSGNWHCDSTWMGDRVITTSTRTWALPTYNNHLYKQISSQSGASNDNHYFGYSTPWGYFDFNRFHCHFSPRDWQRLINNNWGFRPKRLNFKLFNIQVKEVTQNDGTTTIANNLTSTVQVFTDSEYQLPYVLGSAHQGCLPPFPADVFMVPQYGYLTLNNGSQAVGRSSFYCLEYFPSQMLRTGNNFTFSYTFEDVPFHSSYAHSQSLDRLMNPLIDQYLYYLSRTNTPSGACDCRGDCFCATTTQSRLQFSQAGASDIRDQSRNWLPGPCYRQQRVSKTSADNNNSEYSWTGATKYHLNGRDSLVNPGPAMASHKDDEEKFFPQSGVLIFGKQGSEKTNVDIEKVMITDEEEIRTTNPVATEQYGSVSTNLQAGNAQAATADVNTQGVLPGMVWQDRDVYLQGPIWAKIPHTDGHFHPSPLMGGFGLKHPPPQILIKNTPVPANPSTTFSAAKFASFITQYSTGQVSVEIEWELQKENSKRWNPEIQYTSNYNKSVNVDFTVDTNGVYSEPRPIGTRYLTRNL	–	~50 fold
